Data on 1 protein can be found in publication doi:10.1101/2023.04.13.536481 (bioRxiv, 2023).

The data set deals with the molecule itself. Description: crystal structure.

B1: LIN-42 N-terminus residues 41-315 (domain or fragment, C. elegans)
chain: GAMDPEFNTWSSSSVEFLDDADDNRLLFTCTFTLPHGTVLSSATYADGFHEQYLTIGDNFLARLEPKGQSFILSAAAASVKQRIFARVTMPDGALRACELLCEFETDRAKITVLALRSAFSLQASHVSSNFHVFTFITKHSSTCALTHIDYASIPYLGLLPTDLIGKSLLAFVYSPDVHVVRQAHIDLHNSRGKIVKSIADLRLVAHNGSILRCQTEWSAYVNPWTRKMELVVARHRICSLPIGDSDVISSPPPGIQSNTLPPVMAKTFEDELRTIMNKPVP
As to B1, the binding result is “binds”.
